Experimental data taken from publication PMC3057836 (The Journal of Biological Chemistry, 2010).

Assays:
[1] = target: the molecule itself; assay: SEC
[2] = target: the molecule itself; assay: crystal structure

B1: CSpoIISA (His6 tag-free cytosolic domain of SpoIISA) (domain or fragment)
chain: FIFLSAYVKKLAGSELETDTREILEENNEMLHMYLNRLKTYQYLLKNEPIHVYYGSIDAYAEGIDKLLKTYADKMNLTASLCHYSTQADKDRLTEHMDDPADVQTRLDRKDVYYDQYGKVVLIPFTIETQNYVIKLTSDSIVTEFDYLLFTSLTSIYDLVLPIEEEGEG
For B1, the “stoichiometry N” value [1] was 2.

B2: cytoplasmic fragment of SpoIISA (CSpoIISA) as found in the crystal of the CSpoIISA·SpoIISB complex (domain or fragment)
chain: GSELETDTREILEENNEMLHMYLNRLKTYQYLLKNEPIHVYYGSIDAYAEGIDKLLKTYADKMNLTASLCHYSTQADKDRLTEHMDDPADVQTRLDRKDVYYDQYGKVVLIPFTIETQNYVIKLTSDSIVTEFDYLLFTSLTSIYDLVLPIEEEGEG
modifications: selenomethionine-substituted
With B2 the “stoichiometry N” value [2] was 2.
